According to patent US20240168030A1, “DIRECT FLUORESCENT GLYCAN LABELING” (BIO-TECHNE CORPORATION, priority 2019, published 2024):

T1: FUT9 (Homo sapiens, UniProt Q9Y231)
T1 construct: purchased Bio-Techne (Minneapolis, MN)
T1 sequence (Q9Y231 1-359): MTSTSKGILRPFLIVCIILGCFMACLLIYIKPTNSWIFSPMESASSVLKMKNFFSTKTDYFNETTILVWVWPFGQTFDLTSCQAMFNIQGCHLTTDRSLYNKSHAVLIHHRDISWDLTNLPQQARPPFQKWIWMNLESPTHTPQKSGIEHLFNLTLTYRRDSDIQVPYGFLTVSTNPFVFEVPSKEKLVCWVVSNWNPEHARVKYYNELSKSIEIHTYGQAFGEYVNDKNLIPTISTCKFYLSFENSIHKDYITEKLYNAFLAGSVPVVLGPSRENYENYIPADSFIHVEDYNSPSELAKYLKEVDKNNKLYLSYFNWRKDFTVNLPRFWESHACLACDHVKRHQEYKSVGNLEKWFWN


Key:
FUT9 = molecular target: T1, FUT9; experiment: Fluorescent labeling with fluorophore-conjugated fucose by FUT9; assay type: biochemical; conditions: 0.3 μg FUT9, 0.2 nmol donor, 30 μl, 37° C., FIG. 17
Method: (§1) FIG. 9A-FIG. 9B show exemplary results of probing substrate glycans of various fucosyltransferases on fetuin and asialofetuin. FIG. 9A. Probing substrate glycans of fucosyltransferases with guanosine 5′-diphosphate activated Cy5 conjugated fucose (GDP-Cy5-Fuc). […] FUT9 labeled itself (indicated by an arrow in the gel). FIG. 9B. Tolerance of Alexa-Fluor®555 (555), Alexa-Fluor®488 (488), and Cy5 by the indicated fucosyltransferases. All reactions were incubated at 37° C. for 30 minutes and then separated on SDS-PAGE and imaged with silver staining (upper panels) and fluorescent imager (lower panels). M, molecular marker.
FIG. 10A-FIG. 10D show exemplary results of probing core-6 fucosylation on antibodies by FUT8 incorporation of fluorophores. FIG. 10A. Results of probing substrate glycans of FUT8 (F8) and FUT9 (F9) on Cantuzumab, an anti-Muc1 therapeutic antibody, and NIST reference mAb 8671 using guanosine 5′-diphosphate activated Alexa-Fluor®555 conjugated fucose (GDP-AF555-Fuc) (555), GDP-Cy5-fucose (Cy5), and guanosine 5′-diphosphate activated Alexa-Fluor®488 conjugated fucose (GDP-AF488-Fuc) (488) as donor substrates. Cantuzumab was expressed in FUT8 knockout cells and is devoid of core-6 fucose. Molecular marker (MM) is a prestained Western molecular marker (Bio-Rad Laboratories, Hercules, CA). […] The product of each reaction was separated using SDS-PAGE and imaged with trichloroethanol (TCE) staining (upper panel) and fluorescent imager (lower panel). Labeling on the light chains of the antibodies by Alexa-Fluor®555 is likely the result of non-specific staining due to the use of unpurified GDP-AF555-Fuc that contained free Alexa-Fluor®555. FIG. 10B. […] FIG. 10C. […] FIG. 10D. Schematics of the glycan structures analyzed in FIG. 10B and FIG. 10C.
Mouse IgG (R&D Systems, Minneapolis, MN) was digested with Endo S thoroughly and labeled with 0.3 μg of FUT9 and 0.2 nmol of GDP-Cy5-Fuc in 30 μl at 37° C. for the indicated time points. The glycans were also pretreated with B4GalT2 for 5 minutes at 37° C. and then labeled in the same way. The reactions were separated on 15% SDS PAGE. B4GalT2 pretreatment converted all G1′ to G2′. Maximal labeling on G1′ and G2′ were achieved around 30 minutes. […] The heavy chain (HC) and light chain (LC) were visible in the TCE image. M, Western blot marker (Bio-Rad Laboratories, Hercules, CA).
(§2) For a typical labeling reaction, 1 μg to 5 μg target protein was mixed with 0.2 nmol GDP-f-Fuc and 0.2 μg of a fucosyltransferase in 30 μL buffer of 25 mM Tris pH 7.5, 10 mM MnCl2. The mixture was incubated at 37° C. for 30 minutes. The reaction was then separated by sodium dodecyl sulfate—polyacrylamide gel electrophoresis (SDS-PAGE) and the gel was directly imaged using a fluorescent imager FluorChem M ProteinSimple, Bio-Techne, Minneapolis, MN), followed by imaging with traditional protein imaging methods such as silver staining or trichloroethanol (TCE) staining.
The four enzymes tolerated the three fluorophores to different levels.

[1] = test system: fetal bovine fetuin and asialofetuin; experiment: Labeling of fetuin and asialofetuin by fucosyltransferases with GDP-Cy5-Fuc; assay type: biochemical; conditions: GDP-Cy5-Fuc donor, FIG. 9A
Method: as §1, §2
The labeled samples were then separated on SDS-PAGE, followed by traditional protein gel imaging and fluorescent imaging.

[2] = Enzymatic synthesis of Le^x and sLe^x by glycan gel electrophoresis, substrate G2; assay type: biochemical; conditions: for Relative activity: normalized to FUT6 on sLe^x synthesis
Method: FIG. 21A. Schematic view of the enzymatic steps for Le^X and sLe^X synthesis on the antibody glycan G0. The glycan short names follow that of FIG. 10. FIG. 21B Kinetic comparison of galactosylation on G0 by B4GalT1, sialyation on G2 by ST3Gal4 and ST6Gal1, and fucosylation on A2[3] by FUT7. The reaction time for B4GalT1 was 10 minutes. The reaction time for ST3Gal4, FUT7 and ST6Gal1 was 5 hours. In each case, the labeling enzyme was subject to a 3-fold serial dilution starting from 1 μg each of B4GalT1, FUT7 and ST6Gal1, and 3 μg ST3Gal4. FIG. 21C. […] Reaction time for both cases was 20 minutes. […] FIG. 21D. […] Reaction time for both cases was 20 minutes.
For a typical labeling reaction, 1 μg to 5 μg target protein was mixed with 0.2 nmol fluorophore-conjugated GDP-fucose and 0.2 μg of a fucosyltransferase in 30μL 25 mM Tris pH 7.5, 10 mM MnCl2. The mixture was incubated at 37° C. for 30 minutes. […] To release labeled glycans from a glycoprotein, the sample was first denatured by heating at 95° C. for two minutes in the presence of 0.5% SDS and 80 mM β-mercaptoethanol and then renatured with 1% Triton X-100, and finally treated with PNGase F at 10:1 mass ratio at 37° C. for 20 minutes. To release glycans from antibody, a sample was directly treated with Endo S at 10:1 mass ratio at 37° C. for 20 minutes. All samples were separated by sodium dodecyl sulfate—polyacrylamide gel electrophoresis (SDS-PAGE) at […]. For separating labeled glycoproteins and antibodies, 4-20% gradient SDS gel was used. For separating labeled free glycans, 15% or 17% gel was used. After separation, all gels were imaged using a FluorChem M imager (ProteinSimple, Bio-Techne, Minneapolis, MN). For glycoproteins samples, the gel was also imaged with traditional methods such as silver staining or trichloroethanol (TCE) staining.
For sLe^x synthesis, G0 was first converted to G2 by B4GalT1, then converted to A2[3] by ST3Gal4, and finally converted to A2[3]F2 (carrier of sLe^x) by FUT7 (FIG. 21A). During these steps, different amounts of enzymes, and multiple reaction times were applied to reveal the intermediate products.
Intermediate products are signs for the progress of each enzymatic step.

[3] = test system: fetal bovine fetuin and asialofetuin; experiment: Labeling of fetuin and asialofetuin by sialyltransferases with CMP-f-SA; assay type: biochemical; conditions: CMP-f-SA donors, FIG. 2
asialofetuin = experiment: Asialofetuin labeling with variable amounts of ST3Gal1 or ST6Gal1 (FIG. 7); assay type: biochemical, bovine; conditions: 5 μg asialofetuin, 0.2 nmol CMP-Cy5-SA, 30 μL, 37° C., 30 minutes

Row | Which of fetuin and asialofetuin the fucosyltransferase labeled [1] | Which of fetuin and asialofetuin the sialyltransferase labeled [3] | Enzyme amount achieving maximal labeling of asialofetuin (asialofetuin) | Enzyme amount showing clear visible labeling on asialofetuin (asialofetuin) | Molecule | further results
1 |  |  |  |  | guanosine 5′-diphosphate activated Cy5 conjugated fucose [GDP-Cy5-Fuc] | Time to maximal labeling of B4GalT2 by FUT9 (FUT9): 20 min; Time to maximal labeling on G1′ and G2′ by FUT9 (FUT9; Endo S digested mouse IgG): around 30 minutes
2 | labeled asialofetuin |  |  |  | FUT9: recombinant α-3 fucosyltransferase strictly active on lactosamine (protein, UniProt Q9Y231 1-359, looked up) 4-galactosyl-N-acetylglucosami …: MTSTSKGILRPFLIVCIILGCFMACLLIYIKPTNSWIFSPMESASSVLKMKNFFSTKTDYFNETTILVWVWPFGQTFDLTSCQAMFNIQGCHLTTDRSLYNKSHAVLIHHRDISWDLTNLPQQARPPFQKWIWMNLESPTHTPQKSGIEHLFNLTLTYRRDSDIQVPYGFLTVSTNPFVFEVPSKEKLVCWVVSNWNPEHARVKYYNELSKSIEIHTYGQAFGEYVNDKNLIPTISTCKFYLSFENSIHKDYITEKLYNAFLAGSVPVVLGPSRENYENYIPADSFIHVEDYNSPSELAKYLKEVDKNNKLYLSYFNWRKDFTVNLPRFWESHACLACDHVKRHQEYKSVGNLEKWFWN | Activity based on reaction completion ([2]; substrate G2, completed product Le^x): 2.3 pmol/min/µg; Relative activity ([2]; substrate G2, product Le^x): 17
3 |  | only labeled asialofetuin | 0.25 µg | 0.016 µg | α-2,6-sialyltransferase 1 (protein, UniProt P15907 1-406, looked up, recombinant human sialyltransferase, N-glycan specific) Beta-galactoside …: MIHTNLKKKFSCCVLVFLLFAVICVWKEKKKGSYYDSFKLQTKEFQVLKSLGKLAMGSDSQSVSSSSTQDPHRGRQTLGSLRGLAKAKPEASFQVWNKDSSSKNLIPRLQKIWKNYLSMNKYKVSYKGPGPGIKFSAEALRCHLRDHVNVSMVEVTDFPFNTSEWEGYLPKESIRTKAGPWGRCAVVSSAGSLKSSQLGREIDDHDAVLRFNGAPTANFQQDVGTKTTIRLMNSQLVTTEKRFLKDSLYNEGILIVWDPSVYHSDIPKWYQNPDYNFFNNYKTYRKLHPNQPFYILKPQMPWELWDILQEISPEEIQPNPPSSGMLGIIIMMTLCDQVDIYEFLPSKRKTDVCYYYQKFFDSACTMGAYHPLLYEKNLVKHLNQGTDEDIYLLGKATLPGFRTIHC | Time for the complete conversion of G2 to A2[6] ([2]; FIG. 21B): 5 h; Activity based on reaction completion ([2]; substrate G2, completed product A2[6]): 0.025 pmol/min/µg; Relative activity ([2]; substrate G2, product A2[6]): 0.19
4 | labeled asialofetuin |  |  |  | FUT2: recombinant fucosyltransferase, α1-2 linked fucose (protein, UniProt Q10981 1-343, looked up) Galactoside …: MLVVQMPFSFPMAHFILFVFTVSTIFHVQQRLAKIQAMWELPVQIPVLASTSKALGPSQLRGMWTINAIGRLGNQMGEYATLYALAKMNGRPAFIPAQMHSTLAPIFRITLPVLHSATASRIPWQNYHLNDWMEEEYRHIPGEYVRFTGYPCSWTFYHHLRQEILQEFTLHDHVREEAQKFLRGLQVNGSRPGTFVGVHVRRGDYVHVMPKVWKGVVADRRYLQQALDWFRARYSSLIFVVTSNGMAWCRENIDTSHGDVVFAGDGIEGSPAKDFALLTQCNHTIMTIGTFGIWAAYLTGGDTIYLANYTLPDSPFLKIFKPEAAFLPEWTGIAADLSPLLKH | 
5 |  | only labeled asialofetuin | 0.5 µg | 0.063 µg | α-2,3-sialyltransferase 1 (protein, UniProt Q11201 1-340, looked up, recombinant human sialyltransferase, Core-1 O-glycan specific) CMP-N-acetylneuraminate-beta-g …: MVTLRKRTLKVLTFLVLFIFLTSFFLNYSHTMVATTWFPKQMVLELSENLKRLIKHRPCTCTHCIGQRKLSAWFDERFNQTMQPLLTAQNALLEDDTYRWWLRLQREKKPNNLNDTIKELFRVVPGNVDPMLEKRSVGCRRCAVVGNSGNLRESSYGPEIDSHDFVLRMNKAPTAGFEADVGTKTTHHLVYPESFRELGDNVSMILVPFKTIDLEWVVSAITTGTISHTYIPVPAKIRVKQDKILIYHPAFIKYVFDNWLQGHGRYPSTGILSVIFSMHVCDEVDLYGFGADSKGNWHHYWENNPSAGAFRKTGVHDADFESNVTATLASINKIRIFKGR | 
